Laboratory results reported in patent US20110039770A1, “INHIBITORS OF PROTEIN KINASE C ISOFORMS AND USES THEREOF” (PHARMAGAP INC., priority 2005, published 2011).
Where a SMILES comes first, the peptide text is derived from it. [ ]: non-standard residue; d: D form.

Legend:
PKC-ζ = target: T1, PKC-ζ (Homo sapiens, UniProt Q05513); experiment: Competitive binding assay using cell extracts (Western blot); parameters: cytoplasmic extracts from different cell lines expressing appropriate PKC isoforms; endogenous in cells; host or cells: H661, CCD16Lu, LnCAP, MDAMB231, Du145; key: —: no detectable affinity; Low to very low affinity at 10X or 20X or both PRE concentrations in at least one cell line in the cell extract assay; Low affinity in purified isoform assay.; Moderate affinity at 10X or 20X or both PRE concentrations in at least one cell line in the cell extract assay.; High affinity at 10X or 20X or both PRE concentrations in at least one cell line in the cell extract assay; High affinity in purified isoform assay; details: Cell extract; PRE 10X or 20X antibody concentration
T1 sequence (Q05513 1-592): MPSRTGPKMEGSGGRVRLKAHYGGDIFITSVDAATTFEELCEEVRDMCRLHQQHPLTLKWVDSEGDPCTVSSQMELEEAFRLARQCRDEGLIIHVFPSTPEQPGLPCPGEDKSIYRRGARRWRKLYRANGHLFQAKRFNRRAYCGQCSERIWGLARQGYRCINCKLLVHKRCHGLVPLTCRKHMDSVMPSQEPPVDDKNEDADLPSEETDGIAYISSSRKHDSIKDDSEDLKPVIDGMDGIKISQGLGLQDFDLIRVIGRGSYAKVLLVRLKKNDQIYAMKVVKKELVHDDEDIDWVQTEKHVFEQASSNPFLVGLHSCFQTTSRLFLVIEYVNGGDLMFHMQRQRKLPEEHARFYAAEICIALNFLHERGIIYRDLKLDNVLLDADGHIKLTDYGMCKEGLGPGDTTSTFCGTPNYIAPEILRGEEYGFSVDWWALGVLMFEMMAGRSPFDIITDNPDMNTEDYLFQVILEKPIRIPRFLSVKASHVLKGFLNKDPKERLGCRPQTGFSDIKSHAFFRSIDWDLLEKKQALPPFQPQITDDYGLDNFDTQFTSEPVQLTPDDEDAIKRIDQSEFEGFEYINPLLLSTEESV
Procedure: (§1) Binding efficiency and specificity of the peptides PRE 2, 3, 4, 5, 6, 7, 8, 9, 10, 11, 12 and 13 (see Table 4) was also tested using cytoplasmic extracts from different cell lines expressing appropriate PKC isoforms as described for Example 1. Briefly, the protein cytoplasmic extracts were separated by electrophoresis and transferred onto nitrocellulose membranes by standard Western blotting procedures. The bands on the Western blots were detected with matching primary antibodies and alkaline phosphatase conjugated secondary antibody. The bands were then scanned and the relative density measurements obtained.
(§2) This procedure to assess the binding characteristics of the PREs is based on competition binding of the PRE with the primary anti-isoform PKC specific antibodies. The lower the measured band density, the greater the binding of the PRE to the PKC isoform. The PREs were added at 10 and 20 times (10×, 20×) the primary antibody concentration, according to classical competition between antigenic peptide and primary antibody. The following cell lines (obtained from the ATCC) were used: H661—NCI human lung carcinoma NSCLC; MDAMB231—human highly invasive breast cancer cell line from pleural effusion; LS180—human colon adenocarcinoma; LnCAP—human prostate adenocarcinoma; CCD16Lu—human lung fibroblasts; Du145—human prostate carcinoma brain metastasis, and T24—human bladder carcinoma.
(§3) In these cases, the 20× band density figures relative to control and 10× values were reliable.

PKC-ι = target: T2, PKC-ι (Homo sapiens, UniProt P41743); experiment: as above; parameters: key: —: no detectable affinity; Low to very low affinity at 10X or 20X or both PRE concentrations in at least one cell line in the cell extract assay; Low affinity in purified isoform assay.; Moderate affinity at 10X or 20X or both PRE concentrations in at least one cell line in the cell extract assay.; High affinity at 10X or 20X or both PRE concentrations in at least one cell line in the cell extract assay; High affinity in purified isoform assay; details: Cell extract; PRE 10X or 20X antibody concentration
T2 construct: cytoplasmic extracts from different cell lines expressing appropriate PKC isoforms; endogenous in cells; host or cells: H661, CCD16Lu, LnCAP, MDAMB231, Du145, LS180
T2 sequence (P41743 1-596): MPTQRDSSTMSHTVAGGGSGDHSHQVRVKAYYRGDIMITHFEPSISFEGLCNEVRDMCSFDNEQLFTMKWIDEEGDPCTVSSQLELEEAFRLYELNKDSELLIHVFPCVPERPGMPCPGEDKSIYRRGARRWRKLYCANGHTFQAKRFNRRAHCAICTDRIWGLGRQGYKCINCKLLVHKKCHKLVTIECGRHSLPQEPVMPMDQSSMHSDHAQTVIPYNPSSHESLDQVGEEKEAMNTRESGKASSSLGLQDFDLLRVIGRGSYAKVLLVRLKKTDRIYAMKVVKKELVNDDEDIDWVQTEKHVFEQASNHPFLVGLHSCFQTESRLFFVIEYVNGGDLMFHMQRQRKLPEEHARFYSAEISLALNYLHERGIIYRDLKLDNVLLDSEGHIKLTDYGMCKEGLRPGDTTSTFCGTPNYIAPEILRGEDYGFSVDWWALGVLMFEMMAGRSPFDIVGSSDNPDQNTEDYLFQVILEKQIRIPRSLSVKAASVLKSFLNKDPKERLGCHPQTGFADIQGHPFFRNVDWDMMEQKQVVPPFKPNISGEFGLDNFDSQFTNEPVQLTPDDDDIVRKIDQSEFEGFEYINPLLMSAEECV
Procedure: as §1, §2, §3

| Molecule | Affinity for PKC isoform ζ (PKC-ζ) | Affinity for PKC isoform ι (PKC-ι) |
| --- | --- | --- |
| CC[C@H](C)[C@H](NC(=O)[C@H](CO)NC(=O)[C@@H](NC(=O)CNC(=O)[C@@H](NC(=O)[C@H](CC(C)C)NC(=O)[C@H](CC(N)=O)NC(=O)[C@H](CCC(N)=O)NC(=O)[C@H](C)NC(=O)[C@H](CC(=O)O)NC(=O)CNC(=O)CNC(=O)[C@H](CCCCN)NC(=O)[C@@H](NC(=O)[C@H](CCC(=O)O)NC(=O)[C@H](CCC(N)=O)NC(=O)[C@@H](NC(=O)CNC(=O)[C@H](CCCCN)NC(=O)[C@H](C)NC(C)=O)[C@@H](C)CC)C(C)C)[C@@H](C)CC)[C@@H](C)CC)C(N)=O [PRE 3] (Ac-AKGIQEVKGGDAQNLIGISI-NH2) | — | L |
| CC[C@H](C)[C@H](NC(=O)[C@H](CO)NC(=O)[C@@H](NC(=O)CNC(=O)[C@@H](NC(=O)[C@H](CC(C)C)NC(=O)[C@H](CC(N)=O)NC(=O)[C@H](CCC(N)=O)NC(=O)[C@H](C)NC(=O)[C@H](CC(=O)O)NC(=O)[C@H](CCCCN)NC(C)=O)[C@@H](C)CC)[C@@H](C)CC)C(N)=O [PRE 4, Ac-KDAQNLIGISI-NH2] (Ac-KDAQNLIGISI-NH2) | — | M/L |
| Ac-ISIGILNQADK-NH2 [PRE 10] | M/L |  |
| Ac-KDANQLIGISI-NH2 [PRE 6] | — | — |
| Ac-RDAQNLI-NH2 [PRE 13] | — | — |
| Ac-RDAQNLIGISI-NH2 [PRE 11] | — |  |

Second part, the molecule after the results:

| Affinity for PKC isoform ζ (PKC-ζ) | Affinity for PKC isoform ι (PKC-ι) | Molecule |
| --- | --- | --- |
| L/H |  | CC[C@H](C)[C@H](NC(=O)[C@H](CO)NC(=O)[C@@H](NC(=O)CNC(=O)[C@@H](NC(=O)[C@H](CC(C)C)NC(=O)[C@H](CC(N)=O)NC(=O)[C@H](CCC(N)=O)NC(=O)[C@H](C)NC(=O)[C@H](CC(=O)O)NC(=O)[C@H](CCCCN)NC(=O)CNC(=O)CNC(=O)[C@H](CCCCN)NC(=O)[C@@H](NC(=O)[C@H](CCC(=O)O)NC(=O)[C@H](CCC(N)=O)NC(=O)[C@@H](NC(=O)CNC(=O)[C@H](CCCCN)NC(=O)[C@H](C)NC(C)=O)[C@@H](C)CC)C(C)C)[C@@H](C)CC)[C@@H](C)CC)C(N)=O [PRE 5] (Ac-AKGIQEVKGGKDAQNLIGISI-NH2) |
| — | — | Ac-ISIGILQNADK-NH2 (not fully specified; printed as Ac-ISIGILQNADK-NH2) [PRE 7] |
| M/H | — | Ac-KDAQNLI-NH2 [PRE 12] |
| M/L |  | Ac-isigilqnadk-NH2 (Ac-[dI][dS][dI]G[dI][dL][dQ][dN][dA][dD][dK]-NH2; SMILES CC[C@@H](C)[C@@H](NC(C)=O)C(=O)N[C@H](CO)C(=O)N[C@@H](C(=O)NCC(=O)N[C@@H](C(=O)N[C@H](CC(C)C)C(=O)N[C@H](CCC(N)=O)C(=O)N[C@H](CC(N)=O)C(=O)N[C@H](C)C(=O)N[C@H](CC(=O)O)C(=O)N[C@H](CCCCN)C(N)=O)[C@H](C)CC)[C@H](C)CC) [PRE 9] |
| L | — | RRKKGGKDFVVKR [PRE 1] |
